The values that follow come from US20190284272A1 (published 2019).

This test addresses T1, canine IL-31 protein (Canine_IL31).
T1 chain: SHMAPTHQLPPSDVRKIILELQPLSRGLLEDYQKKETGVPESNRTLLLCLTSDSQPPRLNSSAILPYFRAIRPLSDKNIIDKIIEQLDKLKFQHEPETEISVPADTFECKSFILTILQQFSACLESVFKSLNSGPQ
As to the kind of experiment: Biacore. On the technique in general: Surface plasmon resonance follows binding to a sensor surface in real time, without labels.

B1: Feline 15H05 1.1 FW1_2 (antibody, V domains shown)
VH: QVLLVQSGAEVRTPGASVKIFCKASGYSFTSYTIHWLRQAPAQGLEWMGNINPTSGYTENNQRFKDRLTLTADTSTNTAYMELSSLRSADTAMYYCARWGFKYDGEWSFDVWGAGTTVTVSS
VL: DIQMNQSPSSLSASLGDTITVTCRASQGISIWLSWYQQKPGNIPKVLINKASNLHIGVPSRFSGSGSGTDFTLTISSLEPEDAATYYCLQSQTYPLTFGGGTKLEIK
As to B1, the Kd worked out at 0.263 nM.

B2: Feline 15H05 VH1 mouse VL (antibody, V domains shown)
VH: QVLLVQSGAEVRTPGASVKIFCKASGYSFTSYTIHWLRQAPAQGLEWMGNINPTSGYTENNQRFKDRLTLTADTSTNTAYMELSSLRSADTAMYYCARWGFKYDGEWSFDVWGAGTTVTVSS
VL: DIQMNQSPSSLSASLGDTITVTCRASQGISIWLSWYQQKPGNIPKVLINKASNLHIGVPPRFSGSGSGTHFTLTITSLQPEDIATYYCLQSQTYPLTFGGGTKLEIN
As for B2, the Kd was determined as 0.00246 nM.

B3: Feline 15H05 1.2 (antibody, V domains shown)
VH: QVLLVQSGAEVRTPGASVKIFCKASGYSFTSYTIHWLRQAPAQGLEWMGNINPTSGYTENNQRFKDRLTLTADTSTNTAYMELSSLRSADTAMYYCARWGFKYDGEWSFDVWGAGTTVTVSS
VL: EITMTQSPGSLAGSPGQQVTMNCRASQGISIWLSWYQQKPGQHPKLLIYKASNLHIGVPDRFSGSGSGTDFTLTISNLQAEDVASYYCLQSQTYPLTFGGGTKLEIK
In turn, B3 had a Kd of 3.48 nM. Against the preceding molecule, the Kd is about 1400-fold higher.

B4: Feline 15H05 VH2 mouse VL (antibody, V domains shown)
VH: QVLLVQSGAEVRTPGASVKIFCKASGYGFTSYTIHWVRQSPAQGLEWMGNINPTSGYTENNQRFKDRLTLTADTSTNTAYMELSSLRSADTAMYYCARWGFKYDGEWSFDVWGAGTTVTVSS
VL: DIQMNQSPSSLSASLGDTITVTCRASQGISIWLSWYQQKPGNIPKVLINKASNLHIGVPPRFSGSGSGTHFTLTITSLQPEDIATYYCLQSQTYPLTFGGGTKLEIN
B4 gave a Kd of 2.22 nM. This Kd lies about 1.6-fold lower than the previous one.

B5: Feline 15H05 1.1 FW2 (antibody, V domains shown)
VH: QVLLVQSGAEVRTPGASVKIFCKASGYSFTSYTIHWLRQAPAQGLEWMGNINPTSGYTENNQRFKDRLTLTADTSTNTAYMELSSLRSADTAMYYCARWGFKYDGEWSFDVWGAGTTVTVSS
VL: EIQMTQSPSSLSASPGDRVTITCRASQGISIWLSWYQQKPGNIPKVLINKASNLHIGVPSRFSGSGSGTDFTLTISSLEPEDAATYYCLQSQTYPLTFGGGTKLEIK
The molecule B5 had a Kd of 0.000431 nM. This Kd is about 5200-fold lower than that of the molecule before.

B6: Feline 15H05 2.2 (antibody, V domains shown)
VH: QVLLVQSGAEVRTPGASVKIFCKASGYGFTSYTIHWVRQSPAQGLEWMGNINPTSGYTENNQRFKDRLTLTADTSTNTAYMELSSLRSADTAMYYCARWGFKYDGEWSFDVWGAGTTVTVSS
VL: EITMTQSPGSLAGSPGQQVTMNCRASQGISIWLSWYQQKPGQHPKLLIYKASNLHIGVPDRFSGSGSGTDFTLTISNLQAEDVASYYCLQSQTYPLTFGGGTKLEIK
For the molecule B6, the Kd was 0.393 nM.

B7: Feline 15H05 1.1 FW1 (antibody, V domains shown)
VH: QVLLVQSGAEVRTPGASVKIFCKASGYSFTSYTIHWLRQAPAQGLEWMGNINPTSGYTENNQRFKDRLTLTADTSTNTAYMELSSLRSADTAMYYCARWGFKYDGEWSFDVWGAGTTVTVSS
VL: DIQMNQSPSSLSASLGDTITVTCRASQGISIWLSWYQQKPGKVPKLLIYKASNLHIGVPSRFSGSGSGTDFTLTISSLEPEDAATYYCLQSQTYPLTFGGGTKLEIK
As for B7, binding was characterised by a dissociation constant (Kd) of 813 nM.

B8: Feline 15H05 1.1 FW2_3 (antibody, V domains shown)
VH: QVLLVQSGAEVRTPGASVKIFCKASGYSFTSYTIHWLRQAPAQGLEWMGNINPTSGYTENNQRFKDRLTLTADTSTNTAYMELSSLRSADTAMYYCARWGFKYDGEWSFDVWGAGTTVTVSS
VL: EIQMTQSPSSLSASPGDRVTITCRASQGISIWLSWYQQKPGNIPKVLINKASNLHIGVPPRFSGSGSGTHFTLTITSLQPEDIATYYCLQSQTYPLTFGGGTKLEIK
With B8, binding was put at a Kd of 214 nM.

B9: Feline 15H05 3.1 (antibody, V domains shown)
VH: QVLLVQSGAEVRKPGASVKIFCKASGYSFTSYTIHWLRQAPEQGLEWMGNINPTSGYTENNQRFKDRLTLTADTSTNTAYMELSSLRSADTAMYYCARWGFKYDGEWSFDVWGAGTTVTVSS
VL: EIQMTQSPSSLSASPGDRVTITCRASQGISIWLSWYQQKPGKVPKLLIYKASNLHIGVPSRFSGSGSGTDFTLTISSLEPEDAATYYCLQSQTYPLTFGGGTKLEIK
In the case of B9, the affinity, expressed as Kd, was 0.795 nM.

B10: Feline 15H05 2.1 (antibody, V domains shown)
VH: QVLLVQSGAEVRTPGASVKIFCKASGYGFTSYTIHWVRQSPAQGLEWMGNINPTSGYTENNQRFKDRLTLTADTSTNTAYMELSSLRSADTAMYYCARWGFKYDGEWSFDVWGAGTTVTVSS
VL: EIQMTQSPSSLSASPGDRVTITCRASQGISIWLSWYQQKPGKVPKLLIYKASNLHIGVPSRFSGSGSGTDFTLTISSLEPEDAATYYCLQSQTYPLTFGGGTKLEIK
As to B10, the Kd turned out to be 1.65 nM.

B11: Feline 15H05 1.1 FW1_3 (antibody, V domains shown)
VH: QVLLVQSGAEVRTPGASVKIFCKASGYSFTSYTIHWLRQAPAQGLEWMGNINPTSGYTENNQRFKDRLTLTADTSTNTAYMELSSLRSADTAMYYCARWGFKYDGEWSFDVWGAGTTVTVSS
VL: DIQMNQSPSSLSASLGDTITVTCRASQGISIWLSWYQQKPGKVPKLLIYKASNLHIGVPPRFSGSGSGTHFTLTITSLQPEDIATYYCLQSQTYPLTFGGGTKLEIK
In turn, B11 showed a Kd of 0.00436 nM.

B12: Feline 15H05 1.3 (antibody, V domains shown)
VH: QVLLVQSGAEVRTPGASVKIFCKASGYSFTSYTIHWLRQAPAQGLEWMGNINPTSGYTENNQRFKDRLTLTADTSTNTAYMELSSLRSADTAMYYCARWGFKYDGEWSFDVWGAGTTVTVSS
VL: EVVLTQSSAFLSRTLKEKATITCRASQGISIWLSWYQQKPNQAPKLLVKKASNLHIGAPSRFSGSGSGTDFTLTISSPEPEDAATYYCLQSQTYPLTFGGGTKLGDQ
Turning to B12, the Kd is 6.38 nM.

B13: Feline 15H05 1.1 (antibody, V domains shown)
VH: QVLLVQSGAEVRTPGASVKIFCKASGYSFTSYTIHWLRQAPAQGLEWMGNINPTSGYTENNQRFKDRLTLTADTSTNTAYMELSSLRSADTAMYYCARWGFKYDGEWSFDVWGAGTTVTVSS
VL: EIQMTQSPSSLSASPGDRVTITCRASQGISIWLSWYQQKPGKVPKLLIYKASNLHIGVPSRFSGSGSGTDFTLTISSLEPEDAATYYCLQSQTYPLTFGGGTKLEIK
In turn, B13 registered a dissociation constant (Kd) of 0.00504 nM. This Kd is about 1300-fold lower than that of the molecule before.

B14: Feline 15H05 VH3 mouse VL (antibody, V domains shown)
VH: QVLLVQSGAEVRKPGASVKIFCKASGYSFTSYTIHWLRQAPEQGLEWMGNINPTSGYTENNQRFKDRLTLTADTSTNTAYMELSSLRSADTAMYYCARWGFKYDGEWSFDVWGAGTTVTVSS
VL: DIQMNQSPSSLSASLGDTITVTCRASQGISIWLSWYQQKPGNIPKVLINKASNLHIGVPPRFSGSGSGTHFTLTITSLQPEDIATYYCLQSQTYPLTFGGGTKLEIN
On to B14, for which the Kd is 0.00264 nM.

B15: Feline 15H05 3.2 (antibody, V domains shown)
VH: QVLLVQSGAEVRKPGASVKIFCKASGYSFTSYTIHWLRQAPEQGLEWMGNINPTSGYTENNQRFKDRLTLTADTSTNTAYMELSSLRSADTAMYYCARWGFKYDGEWSFDVWGAGTTVTVSS
VL: EITMTQSPGSLAGSPGQQVTMNCRASQGISIWLSWYQQKPGQHPKLLIYKASNLHIGVPDRFSGSGSGTDFTLTISNLQAEDVASYYCLQSQTYPLTFGGGTKLEIK
B15 showed a Kd of 0.204 nM.

B16: Feline 15H05 1.1 FW3 (antibody, V domains shown)
VH: QVLLVQSGAEVRTPGASVKIFCKASGYSFTSYTIHWLRQAPAQGLEWMGNINPTSGYTENNQRFKDRLTLTADTSTNTAYMELSSLRSADTAMYYCARWGFKYDGEWSFDVWGAGTTVTVSS
VL: EIQMTQSPSSLSASPGDRVTITCRASQGISIWLSWYQQKPGKVPKLLIYKASNLHIGVPPRFSGSGSGTHFTLTITSLQPEDIATYYCLQSQTYPLTFGGGTKLEIK
B16: the affinity, expressed as Kd, was 0.13 nM.

B17: Feline_11E12 1.1_K46Q (antibody, V domains shown)
VH: QVLLVQSGAEVKKPGASVKIFCKASGYSFTYYDINWLRQAPEQGLEWMGWIFPGDGGTKYNETFKGRLTLTADTSTNTVYMELSSLRSADTAMYYCARGGTSVIRDAMDYWGQGALVTVSS
VL: EIQMTQSPSSLSASPGDRVTITCRASESVDNYGISFMHWYQQKPGQVPKLLIYRASNLESGVPSRFSGSGSGTDFTLTISSLEPEDAATYYCQQSNKDPLTFGQGT
B17 yielded a Kd of 1.91 nM.

B18: Feline 11E12 1.1 FW2 (antibody, V domains shown)
VH: QVLLVQSGAEVKKPGASVKIFCKASGYSFTYYDINWLRQAPEQGLEWMGWIFPGDGGTKYNETFKGRLTLTADTSTNTVYMELSSLRSADTAMYYCARGGTSVIRDAMDYWGQGALVTVSS
VL: EIQMTQSPSSLSASPGDRVTITCRASESVDNYGISFMHWYQQKPGQPPKLLIYRASNLESGVPSRFSGSGSGTDFTLTISSLEPEDAATYYCQQSNKDPLTFGQGT
B18: binding was put at a Kd of 7.02 nM.

B19: Feline 11E12 1.1 (antibody, V domains shown)
VH: QVLLVQSGAEVKKPGASVKIFCKASGYSFTYYDINWLRQAPEQGLEWMGWIFPGDGGTKYNETFKGRLTLTADTSTNTVYMELSSLRSADTAMYYCARGGTSVIRDAMDYWGQGALVTVSS
VL: EIQMTQSPSSLSASPGDRVTITCRASESVDNYGISFMHWYQQKPGKVPKLLIYRASNLESGVPSRFSGSGSGTDFTLTISSLEPEDAATYYCQQSNKDPLTFGQGT
Regarding B19, binding was put at a Kd of 0.764 nM.

By Kd is commonly meant the equilibrium constant for the complex coming apart. A lower Kd goes with tighter binding.
